According to publication PMC8121789, “Characterization of an engineered live bacterial therapeutic for the treatment of phenylketonuria in a human gut-on-a-chip” (Nature Communications, 2021):

Substrate: N[C@@H](Cc1ccccc1)C(=O)O
Experiment: Phe consumption by live engineered cells, Michaelis-Menten model
Type: cell-based, Photorhabdus laumondii
Details: apparent whole-cell pathway value (PheP uptake plus PAL), not purified enzyme; in vitro Phe consumption assays

B1: phenylalanine ammonia lyase (PAL) (Photorhabdus laumondii subsp. laumondii TTO1) (protein)
chain: MKAKDVQPTIIINKNGLISLEDIYDIAIKQKKVEISTEITELLTHGREKLEEKLNSGEVIYGINTGFGGNANLVVPFEKIAEHQQNLLTFLSAGTGDYMSKPCIKASQFTMLLSVCKGWSATRPIVAQAIVDHINHDIVPLVPRYGSVGASGDLIPLSYIARALCGIGKVYYMGAEIDAAEAIKRAGLTPLSLKAKEGLALINGTRVMSGISAITVIKLEKLFKASISAIALAVEALLASHEHYDARIQQVKNHPGQNAVASALRNLLAGSTQVNLLSGVKEQANKACRHQEITQLNDTLQEVYSIRCAPQVLGIVPESLATARKILEREVISANDNPLIDPENGDVLHGGNFMGQYVARTMDALKLDIALIANHLHAIVALMMDNRFSRGLPNSLSPTPGMYQGFKGVQLSQTALVAAIRHDCAASGIHTLATEQYNQDIVSLGLHAAQDVLEMEQKLRNIVSMTILVVCQAIHLRGNISEIAPETAKFYHAVREISSPLITDRALDEDIIRIADAIINDQLPLPEIMLEE
notes: PAL genes inserted in chromosome of host E. coli Nissle 1917 strain SYN5183 (FNR and Ptac promoters), co-expressed with transporter PheP; live cells
Q: How did the Km turn out when B1 was run?
A: Its Km is 200 µM.
